The target of test [1] is Muc1 mucin bearing the CA6 sialoglycotope (DS6 antigen), as expressed by CA6-positive human tumour cell lines (human) (UniProt P15941). The test can be described thus: flow cytometry on KB cells. For orientation: In flow cytometry, cells or beads pass a laser one at a time.
For test [2] the target is unchanged. As to the kind of experiment: flow cytometry on HeLa cells.
For test [3] the target is unchanged. As to the kind of experiment: flow cytometry on MCF7 cells.
Test [4] shares this target. As to the kind of experiment: flow cytometry on BT549 cells.
Test [5] shares this target. The test can be described thus: flow cytometry on CaOV3 cells.

For the substance CM1 antibody (Muc1 VNTR antibody), the MMF (maximum mean relative fluorescence) (relative fluorescence) is 338 in test [1]; 335 in test [2]; 1020 in test [3]; 188 in test [4]; 1030 in test [5].

The values above are taken from patent US20110064733A1.
